Experimental data published in patent US20040033952A1 (published 2004).

Tests used:
human IGFBP-1 = target: T1, human IGFBP-1 (human, UniProt P08833 26-259); assay: competitive phage ELISA
T1 construct: mature; also called IGFBP-I
T1 sequence (looked up): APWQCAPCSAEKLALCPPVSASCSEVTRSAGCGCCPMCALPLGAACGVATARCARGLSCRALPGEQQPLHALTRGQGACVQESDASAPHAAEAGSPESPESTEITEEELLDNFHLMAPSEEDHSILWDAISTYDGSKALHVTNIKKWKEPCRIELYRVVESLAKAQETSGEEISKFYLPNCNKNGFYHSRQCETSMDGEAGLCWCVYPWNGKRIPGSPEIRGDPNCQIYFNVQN
Method: (§1) E. coli cells (XL1-Blue, Stratagene) freshly transformed with phagemid vector were grown overnight in 5 mL 2YT medium (Sambrook et al., supra) in the presence of M13-VCS helper phage (Stratagene). Phage particles were harvested and resuspended in PBS buffer as described in Lowman, H. B., “Phage Display of Peptide Libraries on Protein Scaffolds,” in Cabilly, S. (ed.), Combinatorial Peptide Library Protocols (Humana Press Inc.: Totowa, N.J., 1998), pp. 249-264. Then phage concentrations were normalized to yield a maximal ELISA signal of 0.2-0.4 for each mutant (Lowman, in Cabilly, S. (ed.), supra). Threefold serial dilutions of soluble competitor were prepared on non-absorbent microtiter plates (Nune, F, 96 wells) with binding buffer (0.5% TWEEN™ 20/PBS) containing phage at the previously-determined concentrations. The dilution range of competitor protein extended over six orders of magnitude, starting at 5 μM for IGFBP-1 and 500 nM for IGFBP-3. After blocking, the plates containing immobilized target were washed with 0.05% TWEEN™/PBS buffer and subsequently incubated with 80 μl/well of the premixed phage-competitor solutions for 1 hour at room temperature. After washing, bound phage was detected with 80 μl/well of a solution containing a primary rabbit anti-phage polyclonal antibody and a secondary goat anti-rabbit monoclonal antibody-horseradish peroxidase conjugate in 0.5% TWEEN20™/PBS. o-Phenylenediamine (Sigma) and tetramethylbenzidine (Kirkegaard and Perry) were used as chromogenic substrates, resulting in product detection at 492 and 450 nm, respectively. IC₅₀ values were determined by fitting the binding data to a generic saturation curve (Lowman, in Cabilly, S. (ed.), supra).

[1] = target: T2, recombinant human IGFBP-3 (human, UniProt P17936 28-291); assay: competitive phage ELISA
T2 construct: mature
T2 sequence (P17936 28-291): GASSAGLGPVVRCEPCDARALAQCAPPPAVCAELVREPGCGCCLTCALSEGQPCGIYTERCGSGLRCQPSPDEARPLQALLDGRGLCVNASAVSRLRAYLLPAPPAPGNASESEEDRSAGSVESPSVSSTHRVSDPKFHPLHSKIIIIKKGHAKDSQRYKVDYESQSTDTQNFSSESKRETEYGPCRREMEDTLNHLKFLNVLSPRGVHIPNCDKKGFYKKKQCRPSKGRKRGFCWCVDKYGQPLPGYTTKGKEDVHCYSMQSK
Method: as §1

[2] = target: T3, human IGFBP-1 (human), P08833; assay: competitive phage ELISA; conditions: remark: other sources report otherwise
T3 chain: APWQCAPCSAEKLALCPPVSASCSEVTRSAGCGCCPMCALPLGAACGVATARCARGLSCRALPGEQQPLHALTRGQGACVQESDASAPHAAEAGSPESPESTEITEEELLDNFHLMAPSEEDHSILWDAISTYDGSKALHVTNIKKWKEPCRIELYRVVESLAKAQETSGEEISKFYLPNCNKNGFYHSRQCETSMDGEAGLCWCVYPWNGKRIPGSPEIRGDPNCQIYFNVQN

[3] = target: T3, human IGFBP-1 (human), P08833; assay: competitive phage ELISA, IGFBP-3-coated wells, soluble IGFBP-1 as competitor (FIG. 3A); conditions: remark: other sources report otherwise

IGF-I L5A (phage-displayed) (from UniProt P69168 267-424) (ligand)
relative IC50 (IC50 mut/IC50 G1S-A70V) (human IGFBP-1): 6.7
relative IC50 (IC50 mut/IC50 G1S-A70V) [1]: 2

B1: IGF-I F49A (phage-displayed), P07455 51-118 (ligand, not shown: large carriers; small tags and cut ends)
chain: SPETLCGAELVDALQFVCGDRGFYFNKPTGYGSSSRRAPQTGIVDECCARSCDLRRLEMYCAPLKPAKSV
relative IC50 (IC50 mut/IC50 G1S-A70V) [2]: > 100
shift of the binding curve against G1S-A70V phage [3]: > 100 fold

B2: Ala(1-3)-IGF-I (phage-displayed triple alanine mutant) (ligand)
chain: AAATLCGAELVDALQFVCGDRGFYFNKPTGYGSSSRRAPQTGIVDECCFRSCDLRRLEMYCAPLKPAKSV
IC50 (human IGFBP-1): 90.4 nM
IC50 [1]: 1.12 nM

B3: IGF-I G7A (phage-displayed) (ligand)
chain: SPETLCAAELVDALQFVCGDRGFYFNKPTGYGSSSRRAPQTGIVDECCFRSCDLRRLEMYCAPLKPAKSV
notes: G1S-A70V template; monovalent M13 display; not shown: M13 gene III fragment (residues 249-406), the display carrier, and its junction to IGF-I
IC50 [1]: 4.58 nM
